Molecular target: Survivin full length (UniProt O15392 1-142)
Assay: ITC

Sequence of Survivin full length (O15392 whole entry): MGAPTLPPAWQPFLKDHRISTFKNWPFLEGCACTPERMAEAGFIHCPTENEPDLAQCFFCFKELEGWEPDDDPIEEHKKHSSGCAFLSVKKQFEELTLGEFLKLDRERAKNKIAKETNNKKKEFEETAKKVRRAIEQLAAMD

## AKER [Sgo1_(AKER) peptide]
  Kd: 11.6 µM
